The results in this text go back to paper PMC6232973.

The assay addresses CC1-CC2-SUN fragment of mouse SUN2 (SUN2 residues 410-731), wild type (mouse). Nature of the assay: SEC.

As to “CC1-CC2-SUN fragment of mouse SUN2 (SUN2 residues 410-731), wild type (domain or fragment)”, the stoichiometry N amounted to 3.
